The text below walks through data of paper PMC5656893, “Regioselective para‐Carboxylation of Catechols with a Prenylated Flavin Dependent Decarboxylase” (Angewandte Chemie (International Ed. in English), 2017).

Substrate in data set [1]: O=C(O)c1ccc(O)c(O)c1
In words: decarboxylation kinetics, purified enzyme reconstituted in vitro with prFMN. The data set is classed as biochemical, Klebsiella pneumoniae. Particulars: apparent; prFMN iminium cofactor, after oxidative maturation.

Substrate in data set [2]: O=C(O)c1ccc(O)c(O)c1
Described as above. The data set is classed as biochemical, Enterobacter cloacae. Particulars: apparent; prFMN iminium cofactor, after oxidative maturation.

B1: KpAroY (Klebsiella pneumoniae subsp. pneumoniae MGH 78578) (protein)
chain: MTAPIQDLRDAIALLQQHDNQYLETDHPVDPNAELAGVYRHIGAGGTVKRPTRIGPAMMFNNIKGYPHSRILVGMHASRQRAALLLGCEASQLALEVGKAVKKPVAPVVVPASSAPCQEQIFLADDPDFDLRTLLPAPTNTPIDAGPFFCLGLALASDPDDASLTDVTIHRLCVQGRDELSMFLAAGRHIEVFRQKAEAAGKPLPITINMGLDPAIYIGACFEAPTTPFGYNELGVAGALRQRPVELVQGVSVPEKAIARAEIVIEGELLPGVRVREDQHTNSGHAMPEFPGYCGGANPSLPVIKVKAVTMRNNAILQTLVGPGEEHTTLAGLPTEASIWNAVEAAIPGFLQNVYAHTAGGGKFLGILQVKKRQPADEGRQGQAALLALATYSELKNIILVDEDVDIFDSDDILWAMTTRMQGDVSITTIPGIRGHQLDPSQTPEYSPSIRGNGISCKTIFDCTVPWALKSHFERAPFADVDPRPFAPEYFARLEKNQGSAK
notes: recombinant, purified from E. coli (UbiX co-expressed), reconstituted in vitro with prFMN and oxidised; UbiD family; about 495 residues
On to B1, for which, in data set [1], the Km (usually the substrate concentration at which the rate is half of its maximum) was determined as 96 ± 23 µM; the kcat – broadly, the number of substrate molecules converted per active site and unit of time at saturation – is reported as 4.7±0.4 s^-1 (printed as v max ^app).

B2: EcAroY (Enterobacter cloacae) (protein)
chain: MQNPINDLRSAIALLQRHPGHYIETDHPVDPNAELAGVYRHIGAGGTVKRPTRTGPAMMFNSVKGYPGSRILVGMHASRERAALLLGCVPSKLAQHVGQAVKNPVAPVVVPASQAPCQEQVFYADDPDFDLRKLLPAPTNTPIDAGPFFCLGLVLASDPEDTSLTDVTIHRLCVQERDELSMFLAAGRHIEVFRKKAEAAGKPLPVTINMGLDPAIYIGACFEAPTTPFGYNELGVAGALRQQPVELVQGVAVKEKAIARAEIIIEGELLPGVRVREDQHTNTGHAMPEFPGYCGEANPSLPVIKVKAVTMRNHAILQTLVGPGEEHTTLAGLPTEASIRNAVEEAIPGFLQNVYAHTAGGGKFLGILQVKKRQPSDEGRQGQAALIALATYSELKNIILVDEDVDIFDSDDILWAMTTRMQGDVSITTLPGIRGHQLDPSQSPDYSTSIRGNGISCKTIFDCTVPWALKARFERAPFMEVDPTPWAPELFSDKK
notes: recombinant, purified from E. coli (UbiX co-expressed), reconstituted in vitro with prFMN and oxidised; UbiD family; homohexamer; about 495 residues
B2: in data set [2], the Km was determined as 61 ± 17 µM and the kcat was 4.6±0.4 s^-1 (printed as v max ^app).
